# According to the supplement of paper PMC7877785:
# ± gives the uncertainty stated by the source.
# Assay: self-splicing fitness, log relative to wild type (ln ratio); higher = more splicing; Tetrahymena group I intron in knt gene, E. coli kanamycin selection, DiMSum; sequences stand for … in CUCUCU…GGAGGGAAAAGUUAUCAGGCAUGCACCUGGUAGCUAGUCUUUAAACCAAUAGAUUGCAUCGGUUUAAAAGGCAAGACCGUCAAAUUGCGGGAAAGGGGUCAACAGCCGUUCAGUACCAAGUCUCAGGGGAAACUUUGAGAUGGCCUUGCAAAGGGUAUGGUAAUAAGCUGACGGACAUGGUCCUAACCACGCAGCCAAGUCCUAAGUCAACAGAUCUUCUGUUGAUAUGGAUGCAGUUCACAGACUAAAUGUCGGUCGGGGAAGAUGUAUUCUUCUCAUAAGAUAUAGUCGGACCUCUCCUUAAUGGGAGCUAGCGGAUGAAGUGAUGCAACACUGGAGCCGCUGGGAACUAAUUUGUAUGCGAAAGUAUAUUGAUUAGUUUUGGAGUACUCGUGGUCG
# Procedure, shortened: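 Colonies from six replicate transformations of E. coli BL21(DE3) were pooled and amplicon-sequenced on an Illumina HiSeq 2500. The library placed an intron with all eight P1ex-region nucleotides randomised inside the knt kanamycin-resistance gene on pET-22b(+), and cells grew overnight at 37°C or 30°C on LB agar with or without 25 μg/mL kanamycin (plus 100 μg/mL carbenicillin, 50 μM IPTG, 0.2% rhamnose). Fitness is the DiMSum error-weighted combination of wild-type-normalised replicate fold changes, kanamycin versus none.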
Sequence,self-splicing fitness (ln) (30 °C),self-splicing fitness (ln) (37 °C)
GUUAAGCAAUAUUACGUGUU,-3.27 ± 0.14,-1.11 ± 0.1
GCUAAGCAAUAUUACGCCGG,-2.65 ± 0.2,-1.33 ± 0.19
AUGAAGCAAUAUUACGCUUA,-0.65 ± 0.061,-0.151 ± 0.075
CAAUAGCAAUAUUACGGUGG,-0.89 ± 0.081,-0.133 ± 0.1
GAGAAGCAAUAUUACGUACC,-1.18 ± 0.23,-0.414 ± 0.35
AUCAAGCAAUAUUACGAAGC,-3.81 ± 0.43,
CCCAAGCAAUAUUACGUCCU,-3.99 ± 0.3,-2.93 ± 0.29
CUACAGCAAUAUUACGGCGC,-3.96 ± 0.29,-1.68 ± 0.39
UUCAAGCAAUAUUACGGCUA,-0.138 ± 0.094,-0.12 ± 0.087
GUCGAGCAAUAUUACGUACU,-2.83 ± 0.29,-0.966 ± 0.21
AUUGAGCAAUAUUACGUCAG,-2.96 ± 0.2,-2.3 ± 0.45
CUCUAGCAAUAUUACGCGUU,,-2.14 ± 0.18
GACCAGCAAUAUUACGGCGU,0.046 ± 0.071,0.319 ± 0.087
UAUCAGCAAUAUUACGGCAG,-0.148 ± 0.075,0.0916 ± 0.089
CAUAAGCAAUAUUACGCGUA,-1.76 ± 0.11,-2.02 ± 0.16
AUCAAGCAAUAUUACGGGGG,-3.79 ± 0.22,-2.64 ± 0.15
GUAUAGCAAUAUUACGAUUC,0.127 ± 0.1,0.598 ± 0.13
CAUCAGCAAUAUUACGAUGU,-3.52 ± 0.15,-2.58 ± 0.15
AACCAGCAAUAUUACGGAGC,-2.17 ± 0.12,-1.49 ± 0.13
UUUCAGCAAUAUUACGAAUG,-0.511 ± 0.086,-0.0774 ± 0.12

Sequence,self-splicing fitness (ln) (30 °C),self-splicing fitness (ln) (37 °C)
ACUUAGCAAUAUUACGACUG,-1.53 ± 0.099,-0.694 ± 0.16
UCUGAGCAAUAUUACGUGUA,-2.67 ± 0.18,-0.868 ± 0.13
AUACAGCAAUAUUACGUUCA,-0.878 ± 0.07,-0.304 ± 0.071
AAACAGCAAUAUUACGCAGG,-2.41 ± 0.15,-2.33 ± 0.15
UUCCAGCAAUAUUACGGAAC,,-3.19 ± 0.4
UAUAAGCAAUAUUACGCUGU,-2.45 ± 0.2,-3.32 ± 0.35
AUGAAGCAAUAUUACGAUGA,-0.515 ± 0.07,0.274 ± 0.089
AGCUAGCAAUAUUACGCGAC,-3.48 ± 0.47,-2.38 ± 0.43
UCUGAGCAAUAUUACGGGGU,-4.62 ± 0.32,-2.28 ± 0.25
CCGGAGCAAUAUUACGCGCA,-2.85 ± 0.21,-2.29 ± 0.22
GGUCAGCAAUAUUACGACAC,0.184 ± 0.32,-0.0653 ± 0.25
CUGAAGCAAUAUUACGUCAC,-2.03 ± 0.11,-2.73 ± 0.24
GUCGAGCAAUAUUACGGUCC,-3.17 ± 0.22,-0.877 ± 0.17
ACGCAGCAAUAUUACGAUAA,-2.84 ± 0.19,-1.95 ± 0.15
AUGAAGCAAUAUUACGCAGA,-1.63 ± 0.12,-0.868 ± 0.1
GAACAGCAAUAUUACGGUGC,-1.38 ± 0.074,-1.22 ± 0.086
AUGAAGCAAUAUUACGUAGC,-4.32 ± 0.42,-1.45 ± 0.27
CGUUAGCAAUAUUACGAUCU,-1.14 ± 0.091,-0.132 ± 0.12
CUGUAGCAAUAUUACGGUCA,-2.29 ± 0.25,-2.63 ± 0.34
